Numbering of substitutions follows the chain as printed.
T1: murine KIT (murine, UniProt P05532 25-527, limits assumed)
T1 sequence (looked up): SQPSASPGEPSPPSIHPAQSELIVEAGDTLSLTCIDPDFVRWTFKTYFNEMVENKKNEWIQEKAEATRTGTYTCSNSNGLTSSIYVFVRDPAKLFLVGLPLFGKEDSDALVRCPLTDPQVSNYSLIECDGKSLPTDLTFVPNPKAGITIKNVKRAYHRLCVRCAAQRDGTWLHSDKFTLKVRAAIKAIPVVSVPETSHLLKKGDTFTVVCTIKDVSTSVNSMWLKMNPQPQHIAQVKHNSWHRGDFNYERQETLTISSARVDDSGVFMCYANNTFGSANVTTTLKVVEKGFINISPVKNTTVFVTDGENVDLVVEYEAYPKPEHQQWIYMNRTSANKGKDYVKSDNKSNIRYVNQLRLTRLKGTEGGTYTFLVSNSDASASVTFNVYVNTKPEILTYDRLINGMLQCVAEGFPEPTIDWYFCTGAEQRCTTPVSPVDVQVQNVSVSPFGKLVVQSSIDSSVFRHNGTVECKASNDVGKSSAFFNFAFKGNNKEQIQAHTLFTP

B1: Hum8 (antibody, V domains shown)
VH: QVQLVQSGAEVKKPGASVKLSCKASGYTFTDYYINWVRQAPGKGLEWIARIYPGSGNTYYNEKFKGRATLTADKSTSTAYMQLSSLRSEDTAVYFCARGVYYFDYWGQGTTVTVSS
VL: DIVMTQSPSSLSASVGDRVTITCKASQNVRTNVAWYQQKPGKAPKALIYSASYRYSGVPDRFTGSGSGTDFTLTISSLQPEDFADYFCQQYNSYPRTFGGGTKVEIK
B2: Hum10 (antibody, V domains shown)
VH: B1 VH with L20V, A68V, L70I, Q82E
VL: B1 VL
B3: Hum17 (antibody, V domains shown)
VH: B1 VH with R38K, D73E
VL: B1 VL with A46S, T63S, D85T, F87Y
B4: chimeric antibody 37C (antibody, V domains shown)
VH: QVQLKQSGAELVRPGASVKLSCKASGYTFTDYYINWVKQRPGQGLEWIARIYPGSGNTYYNEKFKGKATLTAEKSSSTAYMQLSSLTSEDSAVYFCARGVYYFDYWGQGTTLTVSA
VL: DIVMTQSQKFMSTSVGDRVSVTCKASQNVRTNVAWYQQKPGQSPKALIYSASYRYSGVPDRFTGSGSGTDFTLTISNVQSEDLADYFCQQYNSYPRTFGGGTKLEIK
notes: also called chimera of antibody 37M; chimera

Legend:
[1] = target: T2, full-length, wild-type human KIT expressed on CHO cells (human, UniProt P10721 26-976); assay: cell-based or functional assay
[2] = target: T2, full-length, wild-type human KIT …; assay: cell-based or functional assay; remark: listed apart in the source
murine KIT = target: T1, murine KIT; assay: additional binding assays (format not described)
[3] = target: T2, full-length, wild-type human KIT …; assay: flow cytometry on CHO cells expressing full-length wild-type human KIT (FIG. 6)
Method: Briefly, parental CHO cells and CHO/KIT-WT cells were washed and incubated with 0.01 nM, 0.1 nM, 1 nM or 10 nM of a chimeric (human-mouse) 37M antibody, antibody Hum17, Hum8, Hum4, or Hum10, a negative control isotype IgG antibody, or a commercial anti-KIT antibody as a positive control. The samples were processed for flow cytometry analysis. More specifically, cells were removed from the culture flasks using EDTA, and washed with PBS. Then, the cells were resuspended in media and counted. Each sample containing approximately 200,000 to 250,000 cells was spun, the media was removed, and the cells were resuspended in FC buffer (1% BSA, 0.01% sodium azide in 1×PBS) for the blocking step. The cells were incubated in FC buffer for 1 hour on ice. Then, primary antibody (e.g., a chimeric (human-mouse) 37M antibody, Hum17, Hum8, Hum4, Hum10, positive control anti-KIT antibody, or negative control antibody) was added to the cells in FC buffer as described above. The samples were mixed and incubated on ice for 1 hour, followed by washing the cells with 0.5-1 mL FC buffer. The FC buffer was removed by spinning the cells at 1200 rpm for 3 minutes at 4° C., decanting the liquid. The cell pellets were resuspended in 200 μL FC buffer, and secondary antibody (DyLight 488 AffiniPure Goat Anti-Mouse IgG Jackson Laboratories) was added to the cells at a 1:1000 to 1:2000 dilution. The samples were mixed and incubated on ice for 1 hour, and then washed as described above. The samples were run on a fluorescence activated cell sorter (FACS) machine (Accuri FlowCytometer C6). Samples were analyzed by following channel FLA-1 for DyLight-conjugated samples.

recombinant KIT D4/D5 [4] = target: T3, recombinant KIT D4/D5 (human, UniProt P10721 26-519); assay: solid phase ELISA, plate-adsorbed recombinant D4/D5 region of human KIT (FIG. 5)
T3 construct: also called recombinant c-Kit Ig-like domains D4/D5; recombinant polypeptide of the D4/D5 region of human KIT
Method: Recombinant antigen corresponding to the D4/D5 region of the KIT extracellular domain (see FIG. 2) was absorbed onto 96-well microtiter plates. In particular, recombinant antigen (5 μg) were diluted into 10 mL of borate buffer, and 100 μL of the antigen solution were added to each well of a 96 well plate and were incubated at 4° C. overnight.
ELISA: Following one rinse with TBS-T, blocking buffer (200 μL) was added to each well of the plate with the adsorbed antigen and was incubate at room temperature for one hour. Then, the blocking buffer was removed, and the serially diluted solutions of test antibodies and controls were added to the plate in a volume of 50 μL and incubated at room temperature for one hour. The antibody solutions were removed, and the plate was washed three times with 100 μL of wash buffer on a plate washer. After the last wash, the plate was blotted dry. Secondary antibody solution was diluted 1:8000 and was added to each well in a volume of 100 μL and allowed to incubate for one hour at room temperature. The diluted secondary antibody solution was removed, and the plate was washed three times with 100 μL of wash buffer on a plate washer. Then, freshly mixed TMB substrate solution was added to each well in a volume of 100 μL and was allowed to incubate at room temperature for 30 minutes. Subsequently, 100 μL of 2N H₂SO₄ were added to each well and immediately read on the plate reader. An irrelevant antibody served as the negative control, and an anti-KIT antibody against the D4 and/or D5 domain of the extracellular region of KIT served as the positive control. OD values for each sample were obtained at a wavelength of 450 nm.
Results were analyzed using Graph Pad Prism and Excel to obtain the concentration of antibodies at 50% binding to antigen.

recombinant KIT D4/D5 [5] = target: T3, recombinant KIT D4/D5; assay: direct binding ELISA, plate-coated recombinant KIT D4/D5; assay #3 (purified)
Method: (§1) The binding affinity of the anti-KIT antibodies to the target antigen KIT Ig-like domains D4/D5 was assessed by direct binding ELISA. […] Bound antibody was detected with anti-human Ig-HRP followed by detection using TMB substrate.

recombinant KIT D4/D5 [6] = target: T3, recombinant KIT D4/D5; assay: direct binding ELISA, plate-coated recombinant KIT D4/D5; assay #4 (purified)
Method: as §1

recombinant KIT D4/D5 [7] = target: T3, recombinant KIT D4/D5; assay: direct binding ELISA, plate-coated recombinant KIT D4/D5; assay #1 (supernatant)
Method: as §1

recombinant KIT D4/D5 [8] = target: T3, recombinant KIT D4/D5; assay: direct binding ELISA, plate-coated recombinant KIT D4/D5; assay #2 (supernatant)
Method: as §1

recombinant KIT D4/D5 [9] = target: T3, recombinant KIT D4/D5; assay: direct binding ELISA, plate-coated recombinant KIT D4/D5; assay #4 (purified), 1 replicate
Method: as §1

recombinant KIT D4/D5 [10] = target: T3, recombinant KIT D4/D5; assay: direct binding ELISA, plate-coated recombinant KIT D4/D5; assay #3 (purified), mean of 2 replicates
Method: as §1

recombinant KIT D4/D5 [11] = target: T3, recombinant KIT D4/D5; assay: direct binding ELISA, plate-coated recombinant KIT D4/D5; assay #1 (supernatant), mean of 4 replicates
Method: as §1

recombinant KIT D4/D5 [12] = target: T3, recombinant KIT D4/D5; assay: direct binding ELISA, plate-coated recombinant KIT D4/D5; assay #2 (supernatant), mean of 5 replicates
Method: as §1

T2 sequence (P10721 other isoform, or with tags, fused parts or gaps limits assumed): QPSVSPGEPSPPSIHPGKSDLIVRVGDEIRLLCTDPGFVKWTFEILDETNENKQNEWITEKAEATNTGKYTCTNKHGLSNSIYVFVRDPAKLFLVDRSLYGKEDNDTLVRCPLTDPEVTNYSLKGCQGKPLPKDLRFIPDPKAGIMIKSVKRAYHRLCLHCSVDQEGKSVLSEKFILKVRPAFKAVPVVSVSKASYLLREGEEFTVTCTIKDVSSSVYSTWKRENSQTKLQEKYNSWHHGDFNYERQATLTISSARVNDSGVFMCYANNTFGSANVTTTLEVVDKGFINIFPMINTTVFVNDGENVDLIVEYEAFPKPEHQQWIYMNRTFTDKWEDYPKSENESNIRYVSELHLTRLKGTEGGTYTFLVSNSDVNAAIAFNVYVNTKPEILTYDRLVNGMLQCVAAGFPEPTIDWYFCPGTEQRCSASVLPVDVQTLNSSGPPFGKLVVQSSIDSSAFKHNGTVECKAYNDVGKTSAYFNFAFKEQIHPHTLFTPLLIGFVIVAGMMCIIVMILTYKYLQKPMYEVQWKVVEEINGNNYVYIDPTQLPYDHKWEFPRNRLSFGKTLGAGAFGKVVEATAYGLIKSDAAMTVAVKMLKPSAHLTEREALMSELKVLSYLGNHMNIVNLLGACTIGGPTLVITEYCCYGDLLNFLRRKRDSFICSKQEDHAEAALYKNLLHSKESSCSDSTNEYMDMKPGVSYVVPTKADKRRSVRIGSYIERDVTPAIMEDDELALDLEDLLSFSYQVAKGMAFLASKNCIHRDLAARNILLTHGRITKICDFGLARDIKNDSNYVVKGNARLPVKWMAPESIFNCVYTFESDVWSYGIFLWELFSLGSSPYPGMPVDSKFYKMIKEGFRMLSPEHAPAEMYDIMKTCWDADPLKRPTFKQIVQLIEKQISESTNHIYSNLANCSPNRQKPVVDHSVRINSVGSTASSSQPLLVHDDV
T3 sequence (P10721 other isoform, or with tags, fused parts or gaps limits assumed): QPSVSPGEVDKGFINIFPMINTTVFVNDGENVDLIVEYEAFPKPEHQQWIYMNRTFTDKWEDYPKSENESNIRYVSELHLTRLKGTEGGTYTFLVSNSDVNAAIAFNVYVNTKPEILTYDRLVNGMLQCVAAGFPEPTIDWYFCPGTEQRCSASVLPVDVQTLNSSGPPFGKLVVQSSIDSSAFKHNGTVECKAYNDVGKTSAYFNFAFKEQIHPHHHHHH

Binder	50% inhibition concentration (IC50), SCF-induced KIT tyrosine phosphorylation, cell-based phospho-KIT ELISA [1] [pM]	Relative blocking activity, assay #3 (96-well): IC50 of inhibition of SCF-induced KIT phosphorylation, normalized to chimeric 37M antibody [2]	Relative blocking activity, assay #4 (96-well): IC50 of inhibition of SCF-induced KIT phosphorylation, normalized to chimeric 37M antibody [2]	binding result (murine KIT)	EC50 [3] [pM]	EC50 (recombinant KIT D4/D5 [4]) [pM]	Relative binding activity (recombinant KIT D4/D5 [5])	Relative binding activity (recombinant KIT D4/D5 [6])	Relative binding activity (recombinant KIT D4/D5 [7])	Relative binding activity (recombinant KIT D4/D5 [8])	Relative blocking activity, assay #2 (24-well): IC50 of inhibition of SCF-induced KIT phosphorylation, normalized to chimeric 37M antibody [2]	EC50 (recombinant KIT D4/D5 [9]) [pM]	EC50 (recombinant KIT D4/D5 [10]) [pM]	EC50 (recombinant KIT D4/D5 [11]) [pM]	EC50 (recombinant KIT D4/D5 [12]) [pM]
B1	~542	1.01 relative to chimeric 37M antibody	1.12 relative to chimeric 37M antibody	no binding	~83	~11	0.89 relative to chimeric antibody 37C (normalized EC50)	0.75 relative to chimeric antibody 37C (normalized EC50)	1.02 relative to chimeric antibody 37C (normalized EC50)	0.62 relative to chimeric antibody 37C (normalized EC50)					
B2	~510		0.86 relative to chimeric 37M antibody	no binding	~132	~23	0.87 relative to chimeric antibody 37C (normalized EC50)	0.72 relative to chimeric antibody 37C (normalized EC50)	1.1 relative to chimeric antibody 37C (normalized EC50)	0.88 relative to chimeric antibody 37C (normalized EC50)	0.82 relative to chimeric 37M antibody				
B3	~510		1.07 relative to chimeric 37M antibody	no binding	~139	~6.6	0.98 relative to chimeric antibody 37C (normalized EC50)	0.72 relative to chimeric antibody 37C (normalized EC50)	1.17 relative to chimeric antibody 37C (normalized EC50)	0.76 relative to chimeric antibody 37C (normalized EC50)	1.39 relative to chimeric 37M antibody				
B4	~344				~47	~12						568	462	381	412

— US20190106510A1 (CELLDEX THERAPEUTICS, published 2019)
